In the supplement of paper PMC12042874:
± gives the uncertainty stated by the source.

Assay: amyloid nucleation score (Sup35N fusion, yeast selection) (log enrichment); library NNK1; higher = more nucleation; inactive = no reads after selection
Outline: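 Three technical output replicates were used for random libraries. Psi-negative yeast expressing peptides of 20 random codons fused to Sup35N were induced with 100 μM copper sulfate for 24 hours and grown 7 days at 30°C on medium lacking adenine and uracil, and input and output plasmid inserts were Illumina-sequenced, excluding sequences with under 100 input reads. The nucleation score is the DiMSum log enrichment of output over input reads, centred on the mode score of non-aggregating sequences.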

Substance | amyloid nucleation score
AYAEIYERSEPGKDRHYLFM | -0.313 ± 0.74
HIMRDV | -1.13 ± 1.4
DLSSRFGRVETERGGKVKCQ | -0.299 ± 1.1
WEKNFKIGESRCSV | -0.554 ± 1.1
AWIPFVNTKTEWRVMDVNFD | 0.399 ± 0.62
VGYNNWTLVWGQGAMRVYSG | 0.033 ± 0.34
PNIEPCLSSFVSKSLDDPRT | -0.127 ± 0.37
EAYFFEFIKYLSAPAGSGGN | -0.855 ± 0.98
IFGYMSGS | 0.543 ± 0.63
HKTSKMLCLSI | 0.241 ± 0.9
HFFNVYGSNMVISSWDSRCE | 6.23 ± 0.076
LYMYRSYI | 0.137 ± 0.42
SLLTWFREYVDYTLYQWPGY | -0.131 ± 0.76
YYRGCHLYSHHPLRGLLGGV | inactive
EFYVTCFCVRMKTKAYAPLV | 0.106 ± 0.31
YSFSRQVSMPSSYSFALF | -0.742 ± 0.65
LRNVYMCVQWGFMVETGASC | 3.35 ± 0.16
RSTSF | inactive
IVRQYANLGRCCRTGVVYFQ | 0.386 ± 0.63
LFNWVTSCSGTINGWKIKRH | 3.08 ± 0.12
SMKWSLYLQCRIMYIQTDSR | 3.21 ± 0.12
MRTLWVSKSGIRG | -0.15 ± 0.72
VNMSVIWGRVFASEKVYRAK | 0.871 ± 0.56
LFIFFKV | 0.049 ± 0.51

Substance | amyloid nucleation score
VTNPNYP | -0.696 ± 0.65
MYVYVQISYFGLHCVWTMYK | -0.032 ± 0.45
ALGYGIWGSICNWVWDPFTA | inactive
KCAWNQVNDSNLVAYRASC | 5.13 ± 0.097
CWDKRLNSY | 0.688 ± 0.61
FRLDNLRCTWVFRYPIGESS | 1.17 ± 0.73
QVVFE | 0.1 ± 0.68
VNILDLKTHLRR | inactive
WFQVASRVGLKKVYWVGHLE | inactive
RAIMRKIYYHVMMIWI | 0.153 ± 0.41
FVSLNTIFRAYPQIHYRLVR | inactive
KQCGVKWFMAG | 0.437 ± 1.4
LHRALGQSSWWARQW | -0.13 ± 1
CVRFDSVNCHHLF | 0.238 ± 0.24
TYPLGNSESISVRLFIQYVT | 1.39 ± 0.12
ILICKLHRRVIRGWNFRSDR | 0.086 ± 0.48
LVPRIRFWDYHNTELATHQK | 5.13 ± 0.07
ILHLLRFNDIAFVKRLSAVL | -0.067 ± 0.17
NTCEGGKCSYKVVSFLYLKY | 0.497 ± 0.5
KTLSLLIL | 0.387 ± 0.37
IRSLLYYLFGFLMFWVIRIW | 0.226 ± 0.66
YSEFRDSLRSGIPLVPFVIQ | 0.066 ± 0.88
ENGIGN | 0.453 ± 0.22
HLVRRLYSKWMQT | -0.711 ± 0.96

Substance | amyloid nucleation score
LNLVRLYVTSKCSLDATSVI | -0.444 ± 1.2
SPIMEKACVD | -0.053 ± 1.6
LVHMIAYAVGNLMCIRPLLI | -0.467 ± 0.43
HAFFHYWPVCQWV | 4.57 ± 0.1
RLFLVEFIWNMR | 0.958 ± 0.71
SSIRNVTAICINGSRLINVL | 1.1 ± 0.54
QSVQHFGGYTKTLGASMGTF | -0.797 ± 2.4
TILMASTSYFIPSLP | 1.38 ± 0.21
APSLVVRPSFGGLRTRVVYP | 0.44 ± 0.58
SMFGFTYIVGRMDGSIGWSL | 0.647 ± 0.22
TFTWGRMRSSSVDSCVKSWA | 1.2 ± 0.37
EIVVIASRTASPDFIN | 1.01 ± 0.74
GEHSLSIICCVLCTVGDGPN | 7.611 ± 0.058
RRLYSKKILRDWLASSFSTD | inactive
IAIFKYVKRDSSGKNCLSRS | -0.242 ± 0.25
VTACYYSISFCVRGAMYGYV | 1.38 ± 0.33
QLTVYMFFCYC | 5.378 ± 0.044
LTYLWFT | -0.095 ± 0.27
CQQVLWS | 0.039 ± 0.79
MFIYIYGVPVLTLWGFNVCV | 0.856 ± 0.48
GVCRDAVGGVTYDK | -0.363 ± 1.5
LGFACLSIILSRKSKMWDML | 2.13 ± 0.11
WFFHLTNLSFCCNPLVVPRV | -0.004 ± 0.78
